Source: the supplement of paper PMC11780869

Test system: Bacillus subtilis
Test: cleaved RNA product abundance (RNA/gDNA barcode ratio) relative to median wild-type variant (ratio to wild type); higher = more accumulation of the downstream cleavage product
How it was run: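 Cleaved product abundance was measured with barcoded reporter mRNAs (truncated aprE or tetM) carrying mutagenized RNase Y cleavage-site windows in the B. subtilis chromosome. Cultures in LB at 37°C grew from OD600 0.0003 to 0.3. Gel-selected cleaved RNA was reverse transcribed and barcode-sequenced with genomic DNA barcodes, and the RNA:gDNA barcode ratio per construct was scaled to the median construct bearing the unmutated site.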

[1] = experiment (reporter, strain, medium): exp 8a: truncated aprE reporter, strain BJT201 with 2% xylose (RNase J1 expressed), cleavage site: glnRA (positions -5 to +31 mutated)
[2] = experiment (reporter, strain, medium): exp 4a: truncated aprE reporter, strain BJT201 with 2% xylose (RNase J1 expressed), cleavage site: cggR-gapA (positions -7 to +36 mutated)
[3] = experiment (reporter, strain, medium): exp 2b: truncated aprE reporter, strain BJT200, cleavage site: cggR-gapA (positions -7 to +36 mutated)

Row | Sequence | cleaved RNA product abundance [1] | cleaved RNA product abundance [2] | cleaved RNA product abundance [3]
1 | CGACATGTCCCGCTTCTTTCATTAATCCGTTAGCAACAGTTTTGCTATATACATTTACCATTTAAGAGGAGGAAT | 0.522 |  | 
2 | CGACATGTCCCGCTTCTTTCATTAATCCGTTAGCAACTGTTTTGATAAATACATTTACCTTTTAAGAGGAGGAAT | 0.384 |  | 
3 | ACAGACGAAGGAGCCGCTAAGAAGTTATTAAAGGATGAATAATCCCTCAATATAAATATCTCTCACTTATTTAAA |  | 0.157 | 
4 | ACAGACGAAGGAGCCGCAAAGAAGTTATTTAGGGATGACTAATCCCTCAATATAAATATCTCTCACTTATTTAAA |  | 0.541 | 
5 | CGACATGTCCCGCTTCTTTCATTAATCCATTAGCAACTATTTTGCTATATACATTTACCTTTTAAGAGGAGGAAT | 0.423 |  | 
6 | ACAGACGAAGGAGCCGCAAAGAAGTTATTAAGGGATCAATAATTCCTCAATATAAATATCTCTCACTTATTTAAA |  | 0.22 | 
7 | CGACATGTCCCGCTTCTTTCATTAACCCGTTAGCAACTTTTTTGCTATATACATTTACCTTTTAAGAGGAGGAAT | 0.909 |  | 
8 | CGACATGTCCCGCTTCTTTCATTAATCCGTTAGAAACTGTTTTGCTATATACATTTACATTTTAAGAGGAGGAAT | 0.34 |  | 
9 | ACAGACGAAGGAGCCGCAAAGAAGTTATTAAGGGATGAAAAACCCCTCAATATAAATATCTCTCACTTATTTAAA |  | 0.485 | 0.477
10 | ACAGACGAAGGAGCCGCAAACAAGTTATAAAAGGATGAATAATCCCTCAATATAAATATCTCTCACTTATTTAAA |  |  | 0.139
11 | ACAGACGAAGGAGCCGCAAAGAAGTAATTAAGGGATGAATAATCCATCAATATAAATATCTCTCACTTATTTAAA |  | 0.183 | 0.148
12 | ACAGACGAAGGAGCCGCAAAAAAATTATAAAGGGATGAATAATCCCTCAATATAAATATCTCTCACTTATTTAAA |  | 0.268 | 
13 | ACAGACGAAGGAGCCGCGAAGAAGTTATTAAGAGATGAATAATCCCTCAATATAAATATCTCTCACTTATTTAAA |  | 0.108 | 0.114
14 | ACAGACGAAGGAGCCGCAAAGAAGTTACTAAGGGGTGAATAATCCCTCAATATAAATATCTCTCACTTATTTAAA |  |  | 0.144
15 | ACAGACGAAGGAGCCGCAAAGAAGTTATTAAGGGATGTATAATCTCTCAATATAAATATCTCTCACTTATTTAAA |  | 0.513 | 0.708
16 | ACAGACGAAGGAGCCGCAAAGAAGTTATTAAGGGCTGAATAATCCCTCAATATACATATCTCTCACTTATTTAAA |  | 0.433 | 
17 | ACAGACGAAGGAGCCGCAAACAAGTTATTAAGAGATGAATAATCACTCAATATAAATATCTCTCACTTATTTAAA |  | 0.126 | 0.106
18 | ACAGACGAAGGAGCCGCAAAGAAGTTATTAAGGGATGAATAATCACTCAGTATAAATATCTCTCACTTATTTAAA |  | 0.0778 | 
19 | ACAGACGAAGGAGCCGCAAAGAAGTTATTAAGGGATGAATAATCCCTCAATATAAAAATGTCTCACTTATTTAAA |  | 1.17 | 
20 | ACAGACGAAGGAGCCGCAAAGAAGTTATTAACCGATGAATAATCCCTCAATATAAATATCTCTCACTTATTTAAA |  | 0.0751 | 0.0926
21 | CGACATGTCCCGCTTCTTTCATTAATCCGTTAGAAACTGTATTGCTATATACATTTACCTTTTAAGAGGAGGAAT | 0.321 |  | 
22 | ACAGACGAAGGAGCCGCAAAGAAGTTATTAAGGGATGAATAATCCCCCAATATACATATCTCTCACTTATTTAAA |  | 0.446 | 
23 | CGACATGTCCCGCTTCTTTCATTAATCCGTTAGTAATTGTTTTGCTATATACATTTACCTTTTAAGAGGAGGAAT | 0.362 |  | 
24 | ACAGACGAAGGAGCCGCAAAGAAGTTTTTAAGGGATGAATAATCCGTCAATATAAATATCTCTCACTTATTTAAA |  | 0.321 | 0.133
25 | ACAGACGAAGGAGCCGCAAAGAAGATATTAATGGATGAATAATCCCTCAATATAAATATCTCTCACTTATTTAAA |  | 0.173 | 0.132
